Measurements taken from EP4467153A1, “CONSTRAINED PEPTIDE INHIBITORS OF LRRK2-FADD INTERACTIONS” (University of Georgia Research Foundation, Inc., priority 2023, dated 2024).
Positions of bridges follow the written chain, without caps; N, C: chain ends. Non-standard residues stand in square brackets, D forms with d. Primed or numbered codes have the meaning given here. FAM = 5(6)-carboxyfluorescein label; S5 = C=CCCC[C@](C)(N)C(=O)O; PEG3′ = PEG3 spacer

System: HEK293T cells
Experiment: Cellular uptake of FAM-labeled peptides in HEK293T cells (fluorescence imaging)
Type: cell-based
Description: • FIGs. 1A-1D depict the design and structure of constrained peptides targeting the LRRK2-FADD PPI. (FIG. 1A) Structural representation of the region of the LRRK2 ARM domain in which the FADD-binding motif is located, shown with the fragment of the FADD death domain that binds LRRK2. (FIG. 1B) Highlight schematic of the relevant binding domains within LRRK2 and FADD, and the corresponding amino acid sequence that mediates this PPI is highlighted. (FIG. 1C) Schematic representation of the solid phase peptide synthesis, highlighting the placement of the synthetic amino acids for the placement of the peptide staple. (FIG. 1D) Sequences of the five stapled peptides synthesized, with the position of the synthetic residues in each peptide indicated by an asterisk. • FIGs. 2A-2B depict the cellular uptake of stapled vs. native peptides. (FIG. 2A) HEK293T cells were incubated with 5 µM of non-stapled control or constrained FARMS for a period of 24 hr. […] In the eluate, a dose-dependent reduction of FADD was detected with increasing concentrations of FARMS. […] (FIG. 4B) The percentage of transfected neurons with apoptotic nuclear features was determined in a blinded fashion. […] (FIG. 5B) The band intensities in FIG. 5A were quantified using Image J (n=2). […] (FIG. 5C) Phosphorylation of endogenous RablO in HEK293T cells by over-expressed WT or R1441C-LRRK2 was determined by Western blot, as in FIG. 5A. […]

Question: Which “cellular uptake (permeation of cells)” value (5 µM FAM-labeled peptide, 24 hr) does the source give for “FARM5: FAM-labeled hydrocarbon-stapled FADD Armadillo domain peptide; mass fits SEQ ID NO. 6 KVADLVQEVQQAXDLQXRSK ({FAM-PEG3′}-KVADLVQEVQQA[S5]DLQ[S5]RSK-NH2; staple 13-17; also: FAM label, optionally 5(6)FAM-PEG3 on N-terminal lysine) [FAM-labeled hydrocarbon-stapled FADD Armadillo domain peptide; 6 …XDLQXRSK]” here?
Answer: clear diffuse fluorescent signal along with a few visible puncta was observed throughout cells

Question: What about the “dose-dependency of uptake of FAM-labeled peptide” value (0.1 or 10 µM, 24hr) of the same substance?
Answer: dose-dependent
